This is an account of results in publication PMC5122344, “Nuclear delivery of recombinant OCT4 by chitosan nanoparticles for transgene-free generation of protein-induced pluripotent stem cells”.

Data set [1] concerns the target T1, GST-OCT4 (human, UniProt Q01860 1-360). Briefly: competition; 50-fold excess unlabeled oligonucleotide abolishes complex; LI-COR Odyssey EMSA kit 1x binding buffer (composition and pH not given), 2.5 mM DTT, 0.25% Tween-20, 1 ug poly(dI-dC) in 20 ul, 20 min at RT; 4% native PAGE in 0.5x TBE. To be noted: protein: recombinant; tags: GST (N-terminal, pAcG2T); label: none; (only one strand printed).

The target of data set [2] is T1, GST-OCT4. The data set is described as follows: EMSA; soluble OCT4, 30 ng per lane; LI-COR Odyssey EMSA kit 1x binding buffer (composition and pH not given), 2.5 mM DTT, 0.25% Tween-20, 1 ug poly(dI-dC) in 20 ul, 20 min at RT; 4% native PAGE in 0.5x TBE. To be noted: protein: recombinant; tags: GST (N-terminal, pAcG2T); label: IRDye 700; (only one strand printed). (In EMSA bound probe runs differently from free probe, usually more slowly.)

T1 sequence (Q01860 whole entry): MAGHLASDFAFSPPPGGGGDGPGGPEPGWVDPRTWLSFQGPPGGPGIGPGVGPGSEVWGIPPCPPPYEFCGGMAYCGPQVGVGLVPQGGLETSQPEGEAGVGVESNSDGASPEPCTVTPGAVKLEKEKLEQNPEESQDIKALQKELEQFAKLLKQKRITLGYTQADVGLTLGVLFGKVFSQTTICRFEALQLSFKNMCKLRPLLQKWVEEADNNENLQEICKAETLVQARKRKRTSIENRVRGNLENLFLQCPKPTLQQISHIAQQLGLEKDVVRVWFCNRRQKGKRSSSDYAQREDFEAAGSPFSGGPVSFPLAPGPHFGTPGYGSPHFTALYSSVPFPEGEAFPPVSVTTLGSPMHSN

B1: unlabeled octamer oligonucleotide (dsDNA)
DNA 1: GCCGAATTTGCATATTTGCATGGCTG
DNA 2: CAGCCATGCAAATATGCAAATTCGGC
For the molecule B1, in data set [1], the binding result is “binds”.

B2: octamer oligonucleotide (Ig heavy chain enhancer) (dsDNA)
DNA 1: GCCGAATTTGCATATTTGCATGGCTG
DNA 2: CAGCCATGCAAATATGCAAATTCGGC
For the molecule B2, the binding result in data set [2] was “binds”.
